Square brackets hold non-standard residues; d marks the D form. Peptide text beside a SMILES is read from it. * marks the point of attachment. DOTA = O=C(O)CN1CCN(CC(=O)O)CCN(CC(=O)*)CCN(CC(=O)O)CC1; Cha = N[C@@H](CC1CCCCC1)C(=O)O; 4Abz = Nc1ccc(C(=O)O)cc1; Nle = CCCC[C@H](N)C(=O)O; Ahx = NCCCCCC(=O)O
Key:
in vivo = test: in vivo; set-up: species or system Balb/c mice; conditions: Balb/c, mouse, iv; for dose excreted at 1 h / dose excreted at 2 h / tissue uptake at 1 h / tissue uptake at 2 h: total radioactivity
Procedure: Approval for the animal protocol used in this study was obtained from the Institutional Animal Care and Use Committee. Animal studies were conducted according to the international regulations governing the safe and proper use of laboratory animals. In vivo biodistribution were performed on healthy Balb/c mice (n = 3–5 in each group, body weight 19–22 g) at 1 and 2 h after intravenous injection of the HPLC-purified radiopeptide (100 μL, 15–20 μCi, total peptide dose ~ 20 ng) via the lateral tail vein. The mice were sacrificed by cervical dislocation at specified time points and blood samples were withdrawn with a syringe from the heart. Major organs such as lungs, stomach, spleen, pancreas, intestines, liver, kidneys, etc. were isolated, weighed, and radioactivity in each organs and tissues were measured using a γ-scintillation counter. Uptake of radioactivity in the tissues and organs was expressed as the percent injected dose per gram (% ID/g) of tissue/organ, which was calculated by comparison with standard solutions representing 10% of the injected dose per animal. For the clearance studies, radioactivity in the urine with bladder and feces is expressed as the percent of the injected dose per tissue (% ID). Values are expressed as mean ± SD for a group of 3-5 animals at each time point.

MDA-MB-231 tumors = test: in vivo; assay type: in vivo, nude mice; conditions: for Radioactivity in Urine + bladder / Uptake in Blood / Uptake in Intestines (measured without their contents) / Uptake in Kidneys / Uptake in Liver / Uptake in Lungs / Uptake in Muscle / Uptake in Pancreas / Uptake in Spleen / Uptake in Stomach: female, nude, mouse, in vivo; for Uptake in Tumor: nude mice with MDA-MB-231 tumors, mean ± SD, n = 3-5
Procedure: BN/GRP receptor-positive MDA-MB-231 and PC3 cell lines (American Type Culture Collection, Rockville, USA) were grown as monolayers at 37 °C in a humidified atmosphere containing RPMI-1640 culture media with 10% fetal bovine serum (FBS) in tissue culture flasks. Twenty-four hours prior to conducting the tumor implantation, the media was replaced with RPMI-1640/10% FBS. The cells were grown to 80-90% confluency and harvested by trypsinization. After centrifugation, about 50 million cells were suspended in 1 mL media for implantation into mice. To prepare cells for inoculation, MDA-MB-231 or PC3 cancer cells with media were centrifuged, the media decanted, and the cell pellet was mixed with phosphate-buffered saline (PBS) to reach a concentration of approximately 5 million cells per 100 μL PBS. Human MDA-MB-231 breast cancer xenografts female mouse models were used for in vivo tumor-targeting experiments. For the implantation of tumor xenografts, approximately five million MDA-MB-231 cells in suspension of 100 μL sterile PBS were injected subcutaneously into the left thigh of each mouse. Tumors were allowed to grow for 4-6 weeks by which tumors had reached weights of 200-300 mg. After sufficient growth of tumors, animals were injected with 20-30 μCi of the radiotracers and the animals were sacrificed at specified time points. The uptake of ^68Ga-radiolabeled peptides in the tumors and other major body organs was calculated by γ-counting as described above.

[1] = Radio-HPLC retention time as reflection of lipophilicity; assay type: physicochemical; conditions: chromatographic, econosphere C18 (10 μm, 250 × 4.6 mm), 0.1% TFA water/acetonitrile, 5 to 95% B over 30 min, 1.1 mL/min; radio detection; used as reflection of lipophilicity
Procedure: The HPLC analysis and purification of the peptides were performed on a Shimadzu HPLC system using econosphere C18 reversed-phase column (10 μm, 250 × 4.6 mm). For all HPLC experiments, a gradient system of 0.1% (v/v) TFA in water (solvent A) and 0.1% (v/v) TFA in acetonitrile (solvent B) at a flow rate of 1.1 mL/min was used. The HPLC gradient began with a solvent composition of 95% A and 5% B from 0 to 2.5 min followed by a linear gradient of 95% A and 5% B to 5% A and 95% B over 30 min. The gradient remained at this position for 3 min before switching back to 95% A and 5% B for another 7 min. The major peak isolated and the acetonitrile was then slowly evaporated under a stream of nitrogen gas. Radiochemical purity was estimated by evaluating radioactivity peaks eluted for each ^68Ga-labeled peptide from the HPLC column and calculating the area under the peak (ROI). The main peak of each radiopeptide was isolated and reconstituted in sterile saline for in vitro and in vivo experiments. Radiolabeling of DOTA-coupled BN peptides with ^68Ga was accomplished simply by mixing ~ 20 μg BN peptide with sodium acetate buffer and ^68GaCl3 followed by heating to complete the labeling reaction. By this facile method, a high and reproducible radiolabeling of peptides with ^68Ga was achieved (up to 95%), with a specific radioactivity of greater than 250 Ci/mmol. […] A radiolabeling efficiency of greater than 90% was obtained in all cases, and it ranged between 90 and 95%. […] RP-HPLC retention times of the major peaks, ranging from 18.3 to 20.3 min, reflected slightly variable lipophilicity of these ^68Ga-complexes (Table 1).

[2] = Uptake in Intestines (measured without their contents)

SMILES: CCCC[C@H](NC(=O)[C@H](Cc1c[nH]cn1)NC(=O)[C@H](CC1CCCCC1)NC(=O)[C@@H](NC(=O)[C@H](C)NC(=O)[C@H](Cc1c[nH]c2ccccc12)NC(=O)[C@H](CCC(N)=O)NC(=O)[C@H](CS)NC(=O)CNC(=O)CNC(=O)c1ccc(NC(=O)CN2CCN(CC(=O)O)CCN(CC(=O)O)CCN(CC(=O)O)CC2)cc1)C(C)C)C(=O)N[C@@H](CCSC)C(N)=O [^68Ga-DOTA-Abz-BN Tris-, metal not drawn] ({DOTA-4Abz}-GGCQWAV[Cha]H[Nle]M-NH2)
- %ID excreted in Feces (in vivo; 1 h): 0.90 ± 0.10 %ID
- %ID excreted in Urine (in vivo; 1 h): 43.0 ± 8.70 %ID
- Uptake in Blood (in vivo; 1 h): 0.66 ± 0.13 %ID/g
- Uptake in Bone (in vivo; 1 h): 0.22 ± 0.05 %ID/g
- Uptake in Intestines (measured without their contents) (in vivo; 1 h): 0.79 ± 0.16 %ID/g
- Uptake in Kidneys (in vivo; 1 h): 4.0 ± 0.82 %ID/g
- Uptake in Liver (in vivo; 1 h): 1.59 ± 0.23 %ID/g
- Uptake in Lungs (in vivo; 1 h): 0.58 ± 0.10 %ID/g
- Uptake in Pancreas (in vivo; 1 h): 1.48 ± 0.12 %ID/g
- Uptake in Spleen (in vivo; 1 h): 0.11 ± 0.01 %ID/g
- Uptake in Stomach (in vivo; 1 h): 1.82 ± 0.36 %ID/g
- %ID excreted in Feces (in vivo; 2 h): 0.59 ± 0.08 %ID
- %ID excreted in Urine (in vivo; 2 h): 50.0 ± 3.45 %ID
- Uptake in Blood (in vivo; 2 h): 0.31 ± 0.05 %ID/g
- Uptake in Bone (in vivo; 2 h): 0.12 ± 0.01 %ID/g
- Uptake in Intestines (measured without their contents) (in vivo; 2 h): 0.61 ± 0.09 %ID/g
- Uptake in Kidneys (in vivo; 2 h): 2.86 ± 0.37 %ID/g
- Uptake in Liver (in vivo; 2 h): 0.91 ± 0.15 %ID/g
- Uptake in Lungs (in vivo; 2 h): 0.40 ± 0.08 %ID/g
- Uptake in Pancreas (in vivo; 2 h): 0.97 ± 0.05 %ID/g
- Uptake in Spleen (in vivo; 2 h): 0.10 ± 0.01 %ID/g
- Uptake in Stomach (in vivo; 2 h): 0.52 ± 0.12 %ID/g
- Radioactivity in Urine + bladder (MDA-MB-231 tumors; 1 h): 58.0 ± 6.25 % injected dose per tissue
- Uptake in Blood (MDA-MB-231 tumors; 1 h): 0.93 ± 0.22 % ID/g
- Uptake in Intestines (measured without their contents) (MDA-MB-231 tumors; 1 h): 1.01 ± 0.17 % ID/g
- Uptake in Kidneys (MDA-MB-231 tumors; 1 h): 6.52 ± 0.60 % ID/g
- Uptake in Liver (MDA-MB-231 tumors; 1 h): 2.28 ± 0.31 % ID/g
- Uptake in Lungs (MDA-MB-231 tumors; 1 h): 1.82 ± 0.30 % ID/g
- Uptake in Muscle (MDA-MB-231 tumors; 1 h): 0.36 ± 0.07 % ID/g
- Uptake in Pancreas (MDA-MB-231 tumors; 1 h): 1.81 ± 0.22 % ID/g
- Uptake in Spleen (MDA-MB-231 tumors; 1 h): 0.18 ± 0.03 % ID/g
- Uptake in Stomach (MDA-MB-231 tumors; 1 h): 1.0 ± 0.20 % ID/g
- Radioactivity in Urine + bladder (MDA-MB-231 tumors; 2 h): 65.0 ± 9.13 % injected dose per tissue
- Uptake in Blood (MDA-MB-231 tumors; 2 h): 0.64 ± 0.16 % ID/g
- Uptake in Intestines (measured without their contents) (MDA-MB-231 tumors; 2 h): 0.76 ± 0.12 % ID/g
- Uptake in Kidneys (MDA-MB-231 tumors; 2 h): 3.96 ± 0.48 % ID/g
- Uptake in Liver (MDA-MB-231 tumors; 2 h): 1.71 ± 0.20 % ID/g
- Uptake in Lungs (MDA-MB-231 tumors; 2 h): 1.26 ± 0.25 % ID/g
- Uptake in Muscle (MDA-MB-231 tumors; 2 h): 0.28 ± 0.04 % ID/g
- Uptake in Pancreas (MDA-MB-231 tumors; 2 h): 0.93 ± 0.15 % ID/g
- Uptake in Spleen (MDA-MB-231 tumors; 2 h): 0.09 ± 0.02 % ID/g
- Uptake in Stomach (MDA-MB-231 tumors; 2 h): 0.52 ± 0.13 % ID/g
- Uptake in Tumor (MDA-MB-231 tumors; 1 h p.i.): 2.15 ± 0.33 % ID/g
- Uptake in Tumor (MDA-MB-231 tumors; 2 h p.i.): 1.37 ± 0.25 % ID/g
- Radio-HPLC tR [1]: 19.3 min

SMILES: CCCC[C@H](NC(=O)[C@H](Cc1c[nH]cn1)NC(=O)[C@H](CC1CCCCC1)NC(=O)[C@@H](NC(=O)[C@H](C)NC(=O)[C@H](Cc1c[nH]c2ccccc12)NC(=O)[C@H](CCC(N)=O)NC(=O)[C@H](CS)NC(=O)CNC(=O)CNC(=O)CCCCCNC(=O)CN1CCN(CC(=O)O)CCN(CC(=O)O)CCN(CC(=O)O)CC1)C(C)C)C(=O)N[C@@H](CCSC)C(N)=O [^68Ga-DOTA-Ahx-BN Cyclen, metal not drawn] ({DOTA-Ahx}-GGCQWAV[Cha]H[Nle]M-NH2)
- Uptake in Lungs (in vivo; 2 h): 0.10 ± 0.02 %ID/g
- dose excreted at 1 h (in vivo; %ID excreted in Feces): 0.85 ± 0.17%
- dose excreted at 2 h (in vivo; %ID excreted in Feces): 0.76 ± 0.11%
- dose excreted at 1 h (in vivo; %ID excreted in Urine): 80 ± 9.8%
- dose excreted at 2 h (in vivo; %ID excreted in Urine): 64 ± 6.35%
- tissue uptake at 1 h (in vivo; Uptake in Blood): 0.18 ± 0.04 %ID/g
- tissue uptake at 2 h (in vivo; Uptake in Blood): 0.11 ± 0.03 %ID/g
- tissue uptake at 1 h (in vivo; Uptake in Bone): 0.15 ± 0.03 %ID/g
- tissue uptake at 2 h (in vivo; Uptake in Bone): 0.06 %ID/g
- tissue uptake at 1 h (in vivo; [2]): 0.64 ± 0.12 %ID/g
- tissue uptake at 2 h (in vivo; [2]): 0.41 ± 0.05 %ID/g
- tissue uptake at 1 h (in vivo; Uptake in Kidneys): 1.98 ± 0.34 %ID/g
- tissue uptake at 2 h (in vivo; Uptake in Kidneys): 1.41 ± 0.27 %ID/g
- tissue uptake at 1 h (in vivo; Uptake in Liver): 0.61 ± 0.1 %ID/g
- tissue uptake at 2 h (in vivo; Uptake in Liver): 0.46 ± 0.07 %ID/g
- tissue uptake at 1 h (in vivo; Uptake in Lungs): 0.19 ± 0.04 %ID/g
- tissue uptake at 1 h (in vivo; Uptake in Pancreas): 1.49 ± 0.12 %ID/g
- tissue uptake at 2 h (in vivo; Uptake in Pancreas): 1.02 ± 0.15 %ID/g
- tissue uptake at 1 h (in vivo; Uptake in Spleen): 0.13 ± 0.01 %ID/g
- tissue uptake at 2 h (in vivo; Uptake in Spleen): 0.09 ± 0.01 %ID/g
- tissue uptake at 1 h (in vivo; Uptake in Stomach): 1.48 ± 0.22 %ID/g
- tissue uptake at 2 h (in vivo; Uptake in Stomach): 0.43 ± 0.11 %ID/g
- washout from the tumors over 2 h (MDA-MB-231 tumors; MDA-MB-231 tumors, nude mice, 1 h vs 2 h p.i.): 28%
- Uptake in Liver (MDA-MB-231 tumors; 1 h): 1.02 ± 0.16 % ID/g
- Uptake in Lungs (MDA-MB-231 tumors; 1 h): 0.55 ± 0.10 % ID/g
- Uptake in Liver (MDA-MB-231 tumors; 2 h): 0.91 ± 0.10 % ID/g
- Uptake in Tumor (MDA-MB-231 tumors; 1 h p.i.): 2.32 ± 0.25 % ID/g
- Uptake in Tumor (MDA-MB-231 tumors; 2 h p.i.): 1.65 ± 0.19 % ID/g
- Radio-HPLC tR [1]: 18.3 min

Reference: article PMC6733935, “A convenient and efficient total solid-phase synthesis of DOTA-functionalized tumor-targeting peptides for PET imaging of cancer” (EJNMMI Research, 2019)
